The supplement of paper PMC10126150
± gives the standard deviation of the averaged measurements.

Tested on: ATP
Test: switch fluorescence ratio, 500 uM ATP over buffer (Cy3 cluster intensity, sum of 5 cycles each) (fold (ratio)); higher = stronger signal-on switching upon ATP binding; sequences stand for … in TCGTCGGCAGCGTCAGATGTGTATAAGAGACAGTTTTTTTTTTTTTTTTTTTTTTTTT…TC
Details: aptamer strand: ATP DNA aptamer (quencher-CACCTGGGGGAGTATTGCGGAGGAAGG + anchor), 100 nM annealed; ATP concentration: 500 uM
Summary of the method: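 Between each of five buffer/ATP cycles, the flow-cell was stripped with NaOH and re-annealed. Each cycle imaged Cy3-labelled switching-strand clusters, annealed to 100 nM quencher-labelled ATP aptamer on a modified Illumina MiSeq flow-cell, first in selection buffer and then after 15 min with 500 uM ATP at 22 °C. The fluorescence ratio is summed target-cycle over summed buffer-cycle Cy3 intensity per cluster, averaged per switch-domain sequence, with clusters outside 100-1000 RFU excluded.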
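Note: ATP exposure 15 min at 22 °C before imaging.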

| Sequence | switch fluorescence ratio |
| --- | --- |
| GCGAAAAAGC | 0.978 ± 0.046 |
| GCGAAAACGC | 1.04 ± 0.039 |
| GCGAAAGTTT | 1.01 ± 0.013 |
| GCGAACTTGG | 0.977 ± 0.016 |
| GCGAAGACAA | 1.04 ± 0.048 |
| GCGAATCGCT | 0.9675 ± 0.0058 |
| GCGAATTGGA | 1.028 ± 0.0019 |
| GCGACAAGCT | 0.997 ± 0.015 |
| GCGACAGATG | 1.01 ± 0.027 |
| GCGACAGGGT | 1.023 ± 0.0055 |
| GCGACCATCC | 1.8 ± 0.08 |
| GCGAGAACTA | 0.967 ± 0.024 |
| GCGAGAAGAG | 1.003 ± 0.0092 |
| GCGAGATCCG | 1.01 ± 0.011 |
| GCGAGGACAT | 1.04 ± 0.012 |
| GCGAGGGGCG | 1 ± 0.062 |
| GCGAGGGGGA | 0.984 ± 0.046 |
| GCGAGGGTGG | 1.02 ± 0.018 |
| GCGAGTCTCA | 1.007 ± 0.01 |
| GCGAGTGCGG | 1.02 ± 0.018 |
| GCGAGTTTGC | 1.02 ± 0.017 |
| GCGATAGCAG | 1.03 ± 0.036 |
| GCGATAGGGC | 1.02 ± 0.065 |

| Sequence | switch fluorescence ratio |
| --- | --- |
| GCGATCAAGG | 1.02 ± 0.012 |
| GCGATCAATC | 1.71 ± 0.029 |
| GCGATCCCCT | 1.77 ± 0.72 |
| GCGATGCTGC | 1.24 ± 0.08 |
| GCGATGTAGA | 1.051 ± 0.0087 |
| GCGATTAAG | 0.981 ± 0.017 |
| GCGATTGTAA | 0.985 ± 0.024 |
| GCGATTTTAA | 1.02 ± 0.048 |
| GCGATTTTTG | 0.986 ± 0.041 |
| GCGCAAAATT | 0.9973 ± 0.0046 |
| GCGCAAGGGG | 1.01 ± 0.015 |
| GCGCAGCGGC | 1.09 ± 0.023 |
| GCGCAGGCTT | 0.986 ± 0.022 |
| GCGCATAAGG | 1.039 ± 0.0057 |
| GCGCATCATT | 0.986 ± 0.025 |
| GCGCCTGTAT | 0.986 ± 0.046 |
| GCGCGCGGAA | 1.016 ± 0.0016 |
| GCGCGGAACG | 0.998 ± 0.047 |
| GCGCGGGAAC | 1.46 ± 0.17 |
| GCGCGTGCAC | 0.988 ± 0.042 |
| GCGCTAGCAG | 0.99 ± 0.018 |
| GCGCTATGAG | 1.04 ± 0.02 |
| GCGCTGGTTA | 0.9941 ± 0.0027 |

| Sequence | switch fluorescence ratio |
| --- | --- |
| GCGCTGTGTG | 1 ± 0.041 |
| GCGCTTTCAC | 1.53 ± 0.026 |
| GCGGAAAGGC | 1.01 ± 0.0025 |
| GCGGAAGGTG | 1.55 ± 0.032 |
| GCGGAATGCA | 0.997 ± 0.025 |
| GCGGACCGGT | 0.968 ± 0.04 |
| GCGGAGAAAT | 1.4 ± 0.3 |
| GCGGATAGAA | 1.04 ± 0.017 |
| GCGGATGCGT | 1.03 ± 0.048 |
| GCGGATGTGC | 1.036 ± 0.0078 |
| GCGGATTTGT | 0.998 ± 0.038 |
| GCGGCAAGGA | 1.04 ± 0.017 |
| GCGGCCCGAG | 0.962 ± 0.022 |
| GCGGCCGAGG | 1.02 ± 0.041 |
| GCGGCCTTGT | 1.04 ± 0.011 |
| GCGGCCTTTC | 1.2 ± 0.23 |
| GCGGCGAGGA | 1.02 ± 0.038 |
| GCGGCGGAGG | 0.995 ± 0.032 |
| GCGGCTGCTG | 1.04 ± 0.062 |
| GCGGCTGG | 0.963 ± 0.022 |
| GCGGCTGGGG | 1.01 ± 0.057 |
| GCGGGAAATT | 1 ± 0.03 |
| GCGGGACTTG | 1.03 ± 0.029 |

| Sequence | switch fluorescence ratio |
| --- | --- |
| GCGGGAGGGG | 0.99 ± 0.054 |
| GCGGGATTAT | 1.012 ± 0.0057 |
| GCGGGCATTT | 0.995 ± 0.015 |
| GCGGGCCGTC | 1.03 ± 0.023 |
| GCGGGGAGGT | 1.01 ± 0.055 |
| GCGGGGCCAG | 0.982 ± 0.011 |
| GCGGGGGAAT | 1.05 ± 0.071 |
| GCGGGGGAGG | 0.993 ± 0.029 |
| GCGGGGGGCA | 1.03 ± 0.055 |
| GCGGGGGTGT | 1.05 ± 0.026 |
| GCGGGGTCGT | 0.977 ± 0.032 |
| GCGGGTAAGC | 1.05 ± 0.012 |
| GCGGGTAGCG | 0.983 ± 0.022 |
| GCGGGTGACC | 1.02 ± 0.034 |
| GCGGGTGGTA | 1.01 ± 0.041 |
| GCGGGTTAGT | 1.13 ± 0.13 |
| GCGGGTTATG | 1.02 ± 0.029 |
| GCGGGTTTTC | 1.03 ± 0.017 |
| GCGGTAACGT | 0.9765 ± 0.0069 |
| GCGGTACGCT | 1.08 ± 0.091 |
| GCGGTATGCT | 0.9517 ± 0.0058 |
| GCGGTATTCT | 1.001 ± 0.0042 |
| GCGGTCAGCT | 0.99 ± 0.087 |

| Sequence | switch fluorescence ratio |
| --- | --- |
| GCGGTGCTTG | 0.9901 ± 0.0071 |
| GCGGTGGGGG | 1.03 ± 0.03 |
| GCGGTTGTCC | 1.0001 ± 0.00078 |
| GCGGTTTAAG | 1 ± 0.013 |
| GCGGTTTCGT | 0.983 ± 0.012 |
| GCGGTTTGAG | 0.933 ± 0.012 |
| GCGTAATATG | 1.16 ± 0.068 |
| GCGTAATGGG | 0.975 ± 0.02 |
| GCGTACGTAG | 0.998 ± 0.019 |
| GCGTAGGTAG | 0.964 ± 0.038 |
| GCGTAGGTGT | 1.09 ± 0.033 |
| GCGTATCGGA | 1.01 ± 0.043 |
| GCGTATGAGA | 1.02 ± 0.013 |
| GCGTATTTGC | 1.033 ± 0.01 |
| GCGTCAAGAG | 1.24 ± 0.046 |
| GCGTCAGCGG | 0.981 ± 0.02 |
| GCGTCGAACA | 0.999 ± 0.068 |
| GCGTCGTCGG | 1.01 ± 0.036 |
| GCGTCTTTAC | 1.13 ± 0.024 |
| GCGTGAAGTA | 0.997 ± 0.012 |
| GCGTGAGGTG | 1.01 ± 0.048 |
| GCGTGAGTTG | 0.9783 ± 0.0085 |
| GCGTGCAGGG | 1.01 ± 0.025 |

| Sequence | switch fluorescence ratio |
| --- | --- |
| GCGTGCATCC | 1.03 ± 0.053 |
| GCGTGTGGGC | 1.071 ± 0.0066 |
| GCGTGTTTTT | 1.04 ± 0.013 |
| GCGTTCGGCC | 1.01 ± 0.016 |
| GCGTTGGGTC | 1.02 ± 0.014 |
| GCGTTGGTCG | 0.929 ± 0.0014 |
| GCGTTTACTT | 1.004 ± 0.0016 |
| GCGTTTTCGG | 1.02 ± 0.039 |
| GCTAAAACAT | 1.0086 ± 0.00063 |
| GCTAAAGGCA | 0.986 ± 0.043 |
| GCTAAAGTTC | 1.01 ± 0.0014 |
| GCTAAATCGG | 1.027 ± 0.0082 |
| GCTAACACTT | 1.02 ± 0.013 |
| GCTAATTTGC | 0.98953 ± 0.00037 |
| GCTACAGCTT | 1.02 ± 0.015 |
| GCTACCTTTG | 1.01 ± 0.014 |
| GCTACGGGTA | 1.08 ± 0.031 |
| GCTACTCGAA | 1.06 ± 0.02 |
| GCTAGAAGCG | 1.001 ± 0.0099 |
| GCTAGAAGGT | 1.01 ± 0.03 |
| GCTAGATTTA | 0.987 ± 0.021 |
| GCTAGCCAAG | 1.04 ± 0.053 |
| GCTAGCCATT | 0.978 ± 0.029 |

| Sequence | switch fluorescence ratio |
| --- | --- |
| GCTAGGGGGG | 1 ± 0.04 |
| GCTAGGGGGT | 1.02 ± 0.09 |
| GCTAGGGGTT | 1.13 ± 0.25 |
| GCTAGGTCTA | 1.01 ± 0.034 |
| GCTAGTAGTC | 1.01 ± 0.046 |
| GCTAGTTATG | 1.04 ± 0.1 |
| GCTATACGAT | 2.17 ± 0.18 |
| GCTATACGTA | 1.22 ± 0.049 |
| GCTATAGACT | 1.02 ± 0.067 |
| GCTATAGGGA | 0.957 ± 0.014 |
| GCTATATTTG | 1.01 ± 0.013 |
| GCTATGGAGC | 1.06 ± 0.079 |
| GCTATGGGGA | 1.02 ± 0.02 |
| GCTATTAAGT | 0.9695 ± 0.003 |
| GCTATTAGTT | 1.04 ± 0.017 |
| GCTATTATTA | 0.974 ± 0.045 |
| GCTATTGATC | 1.02 ± 0.021 |
| GCTATTGCGG | 1.028 ± 0.0042 |
| GCTATTGGCA | 1.014 ± 0.01 |
